Assay results reported in article PMC4551902, “Aquaporins Mediate Silicon Transport in Humans” (PLoS ONE, 2015).

Experiments:
[1] = biological target: T1, lsi1 (Oryza sativa, UniProt Q6Z2T3); assay: 68Ge influx into oocytes, liquid scintillation counting; assay type: cell-based; settings: 2 mM H4GeO4 with 68Ge tracer, B1 medium, pH 7.4, 90 min; labelled compound
T1 construct: gene NIP2-1; expressed in Xenopus laevis oocytes
T1 sequence (Q6Z2T3 1-298): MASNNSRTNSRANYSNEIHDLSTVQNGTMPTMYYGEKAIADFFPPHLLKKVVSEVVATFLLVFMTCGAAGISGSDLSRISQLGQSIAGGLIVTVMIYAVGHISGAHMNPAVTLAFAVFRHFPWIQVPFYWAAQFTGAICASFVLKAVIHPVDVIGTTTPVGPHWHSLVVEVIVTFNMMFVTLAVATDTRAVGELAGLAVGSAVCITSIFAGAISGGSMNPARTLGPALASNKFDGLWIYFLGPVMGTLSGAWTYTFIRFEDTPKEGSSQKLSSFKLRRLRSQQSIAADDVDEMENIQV

[2] = biological target: T2, AQP9 (Homo sapiens, UniProt O43315); assay: Si influx and osmotic water transport in oocytes; assay type: cell-based; settings: 0.1 mM phloretin; Si influx: B2a hypoosmolar medium, 2 mM H4SiO4, 30 min; water transport: ~10 mM sucrose, 20 s
T2 construct: full-length human cDNA in Pol1 vector, untagged, expressed in Xenopus laevis oocytes
T2 sequence (O43315 1-295): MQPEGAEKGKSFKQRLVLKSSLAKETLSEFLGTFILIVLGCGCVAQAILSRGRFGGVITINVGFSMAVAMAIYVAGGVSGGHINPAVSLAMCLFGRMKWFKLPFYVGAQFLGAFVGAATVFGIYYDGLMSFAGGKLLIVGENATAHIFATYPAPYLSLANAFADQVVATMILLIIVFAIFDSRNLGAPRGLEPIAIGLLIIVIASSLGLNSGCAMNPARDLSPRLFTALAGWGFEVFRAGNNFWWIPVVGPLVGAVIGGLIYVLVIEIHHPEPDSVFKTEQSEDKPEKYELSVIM

[3] = substrate: O[Si](O)(O)O; assay: cells, lysate or membranes; settings: B1 medium, 4-parameter logistic fit

[OH][Ge]([OH])([OH])[OH] [H4GeO4]
68Ge influx into oocytes, liquid scintillation counting [1]: significantly different relative to background, between channels (for a given substrate)

O=C(CCc1ccc(O)cc1)c1c(O)cc(O)cc1O [phloretin]
effect on Si influx and water transport at 0.1 mM [2]: Si transport by AQP9 is seen to be stimulated by the water transport inhibitor phloretin

B1: AQP9 (Homo sapiens) (protein)
chain: T2 sequence (O43315 1-295)
K0.5 ([3]; pH 7.4, 0-2 mM H4SiO4, 30 min): 117 µM

B2: AQP10 (Homo sapiens) (protein)
chain: MVFTQAPAEIMGHLRIRSLLARQCLAEFLGVFVLMLLTQGAVAQAVTSGETKGNFFTMFLAGSLAVTIAIYVGGNVSGAHLNPAFSLAMCIVGRLPWVKLPIYILVQLLSAFCASGATYVLYHDALQNYTGGNLTVTGPKETASIFATYPAPYLSLNNGFLDQVLGTGMLIVGLLAILDRRNKGVPAGLEPVVVGMLILALGLSMGANCGIPLNPARDLGPRLFTYVAGWGPEVFSAGNGWWWVPVVAPLVGATVGTATYQLLVALHHPEGPEPAQDLVSAQHKASELETPASAQMLECKL
K0.5 ([3]; pH 7.4, 0-2 mM H4SiO4, 60 min): 470 µM

B3: AQP7 (Homo sapiens) (protein)
chain: MVQASGHRRSTRGSKMVSWSVIAKIQEILQRKMVREFLAEFMSTYVMMVFGLGSVAHMVLNKKYGSYLGVNLGFGFGVTMGVHVAGRISGAHMNAAVTFANCALGRVPWRKFPVYVLGQFLGSFLAAATIYSLFYTAILHFSGGQLMVTGPVATAGIFATYLPDHMTLWRGFLNEAWLTGMLQLCLFAITDQENNPALPGTEALVIGILVVIIGVSLGMNTGYAINPSRDLPPRIFTFIAGWGKQVFSNGENWWWVPVVAPLLGAYLGGIIYLVFIGSTIPREPLKLEDSVAYEDHGITVLPKMGSHEPTISPLTPVSVSPANRSSVHPAPPLHESMALEHF
K0.5 ([3]; pH 7.4, 0-2 mM H4SiO4 (value above tested range), 90 min): 2300 µM
